We go through 1 substance from patent publication US20120171195A1.

Some targets named below: HLA-Cw*0304 (human); HLA-B*5101 (human); HLA-B*4002 (human) (UniProt P01889); HLA-Cw*1701 (human); HLA-Cw*0303 (human); HLA-B*4101 (human) (UniProt P01889); HLA-B*4801 (human) (UniProt P01889); HLA-Cw*0801 (human) (UniProt P10321); HLA-B*4402 (human); HLA-B*5201 (human).
Common to all, as to assay: Luminex beads; MAb 1/1600; competitor IgG-free serum

Regarding “murine monoclonal antibody (MAb) MEM-E/02”, the MFI with HLA-Cw*0304 (human) turned out to be 370 MFI; in the assay with HLA-B*5101 (human) it was 281 MFI; with HLA-B*4002 (human), 403 MFI; in the assay with HLA-Cw*1701 (human) it was 392 MFI; in the assay with HLA-Cw*0303 (human) it was 332 MFI; with HLA-B*4101 (human), 392 MFI. The MFI with HLA-B*4801 (human) was 412 MFI; with HLA-Cw*0801 (human), 865 MFI; with HLA-B*4402 (human), 248 MFI; with HLA-B*5201 (human), 337 MFI.
